Where two headings read alike, the source gives them in different places. One block for each substance: values may come before it. No end group written: not given here.
Tests used:
human PTH-1 receptor = target: T1, human PTH-1 receptor (Homo sapiens, UniProt Q03431); test: cAMP accumulation in COS cells expressing the human PTH-1 receptor; type: cell-based; settings: for cAMP accumulation as compared to basal levels in un-stimulated cells: 60 min at 21° C.
T1 sequence (Q03431 27-593): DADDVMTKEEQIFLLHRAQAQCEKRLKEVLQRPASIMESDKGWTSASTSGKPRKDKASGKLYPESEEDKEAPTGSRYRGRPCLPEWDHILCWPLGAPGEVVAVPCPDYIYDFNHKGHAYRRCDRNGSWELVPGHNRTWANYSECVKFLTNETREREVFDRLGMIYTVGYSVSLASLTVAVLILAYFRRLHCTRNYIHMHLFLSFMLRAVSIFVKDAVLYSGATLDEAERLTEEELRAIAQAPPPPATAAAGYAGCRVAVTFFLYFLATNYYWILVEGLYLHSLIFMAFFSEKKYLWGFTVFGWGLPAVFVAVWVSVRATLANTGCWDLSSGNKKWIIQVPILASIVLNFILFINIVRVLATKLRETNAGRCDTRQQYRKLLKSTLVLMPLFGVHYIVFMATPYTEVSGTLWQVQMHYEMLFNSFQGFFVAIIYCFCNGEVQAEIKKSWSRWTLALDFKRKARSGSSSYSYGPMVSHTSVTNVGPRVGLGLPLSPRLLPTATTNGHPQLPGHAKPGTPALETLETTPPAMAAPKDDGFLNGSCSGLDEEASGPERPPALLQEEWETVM
Protocol: Intracellular cAMP accumulation is measured as described previously (Abou-Samra et al., J. Biol. Chem. 262:1129, 1986). Cells grown in 24-well plates are rinsed with culture medium containing 0.1% BSA and 2 mM IBMX. The cells are then incubated with an S-(L)n-B compound or derivatives thereof for 60 min. at 21° C. The supernatant is removed and the cells immediately frozen by placing the whole plate in dry ice powder. Intracellular cAMP is extracted by thawing the cells in 1 ml of 50 mM HCl and analyzed by a specific radioimmunoassay using an anti-cAMP antibody (e.g., Sigma, St. Louis, Mo.). A cAMP analog (2′-O-monosuccinyl-adenosine 3′:5′-cyclic monophosphate tyrosyl methyl ester, obtained from Sigma) which is used a tracer for cAMP is iodinated by the chloramine T method. Free iodine is removed by adsorbing the iodinated cAMP analog onto a C18Sep-pak cartridge (Waters, Milford, Mass.). After washing with dH20, the iodinated cAMP analog is eluted from the Sep-pak Cartridge with 40% acetonitrille (ACN) and 0.1% trifluoroacetic acid (TFA). The iodinated cAMP analog is lyophilized, reconstituted in 1 ml 0.1% TFA, and injected into a C18 reverse phase HPLC column (Waters). The column is equilibrated with 10% ACN in 0.1% TFA, and eluted with gradient of 10–30% ACN in 0.1% TFA. This allows separation of the mono-iodinated cAMP analog from the non-iodinated cAMP analog. The tracer is stable for up to 4 months when stored at −20° C. The standard used for the assay, adenosine 3′:5′-cyclic monophosphate, may be purchased from Sigma. Samples (1–10 µl of HCl extracts) or standards ([…]) are diluted in 50 Mm Na-acetate (pH 5.5), and acetylated with 10 μl of mixture of triethylamine and acetic anhydride (2:1 vol:vol). After acetylation, cAMP antiserum (100 μl) is added from a stock solution (1:4000) made in PBS (pH 7.4), 5 mM EDTA and 1% normal rabbit serum. The tracer is diluted in PBS (pH 7.4) with 0.1% BSA, and added (20,000 cpm/tube). The assay is incubated at 4° C. overnight. […] The supernatant is removed and the bound radioactivity is counted in a gamma-counter (Micromedic). […]
In order to screen for agonist activity, functional domain conjugate peptides of the invention were utilized in in vitro assays designed to measure cellular response via cAMP accumulation. Intracellular cAMP accumulation is measured as described previously (Abou-Samra et al., J. Biol. Chem. 262:1129, 1986).
Cells grown in 24-well plates are rinsed with culture medium containing 0.1% BSA and 2 mM IBMX. […] Intracellular cAMP is extracted by thawing the cells in 1 ml of 50 mM HCl and analyzed by a specific radioimmunoassay using an anti-cAMP antibody (e.g., Sigma, St. Louis, Mo.). […]

truncated PTH receptor = target: T2, truncated PTH receptor (Rattus norvegicus, UniProt P25961); settings: cited from earlier work
T2 sequence (P25961 with tags, fused parts or gaps): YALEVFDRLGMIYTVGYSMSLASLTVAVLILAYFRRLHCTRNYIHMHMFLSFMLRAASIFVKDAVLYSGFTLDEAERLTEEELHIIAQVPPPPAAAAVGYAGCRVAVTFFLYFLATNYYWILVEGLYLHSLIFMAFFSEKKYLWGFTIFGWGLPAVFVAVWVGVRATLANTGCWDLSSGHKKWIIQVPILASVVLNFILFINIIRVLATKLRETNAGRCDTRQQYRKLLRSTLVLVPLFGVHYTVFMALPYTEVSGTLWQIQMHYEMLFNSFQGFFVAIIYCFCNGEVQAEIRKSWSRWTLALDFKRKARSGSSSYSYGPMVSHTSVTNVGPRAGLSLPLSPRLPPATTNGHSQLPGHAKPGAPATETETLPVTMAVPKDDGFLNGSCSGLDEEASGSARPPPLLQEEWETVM

wildtype PTH receptor = target: T3, wildtype PTH receptor (Rattus norvegicus, UniProt P25961); settings: read-out: EC50, cAMP formation, cited from earlier work
T3 sequence (P25961 27-591): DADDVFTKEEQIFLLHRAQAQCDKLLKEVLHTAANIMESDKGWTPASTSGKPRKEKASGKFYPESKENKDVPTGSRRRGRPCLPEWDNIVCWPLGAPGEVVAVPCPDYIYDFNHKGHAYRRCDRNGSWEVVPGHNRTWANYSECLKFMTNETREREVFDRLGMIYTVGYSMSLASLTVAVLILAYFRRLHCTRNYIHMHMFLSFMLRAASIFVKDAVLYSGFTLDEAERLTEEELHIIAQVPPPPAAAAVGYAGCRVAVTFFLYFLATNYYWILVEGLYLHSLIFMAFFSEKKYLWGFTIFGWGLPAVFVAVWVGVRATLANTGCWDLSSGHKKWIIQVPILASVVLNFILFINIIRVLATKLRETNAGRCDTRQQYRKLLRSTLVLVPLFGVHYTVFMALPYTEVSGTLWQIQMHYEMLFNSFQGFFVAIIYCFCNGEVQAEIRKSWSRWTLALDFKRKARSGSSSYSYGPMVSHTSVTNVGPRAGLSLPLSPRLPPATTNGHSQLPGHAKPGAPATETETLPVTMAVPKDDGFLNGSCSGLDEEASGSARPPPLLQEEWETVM

cAMP accumulation as compared to basal levels in un-stimulated cells (human PTH-1 receptor): increased levels of cAMP accumulation
Substance: PTH (1–5)-(Gly)9-PTH(15–31) (AVSEIGGGGGGGGGLNSMERVEWLRKKLQDV; modified PTH sequence) [PG9, S-(L)n-B peptide: PTH(1–5), linker (Gly)9, PTH(15–31)]

cAMP accumulation as compared to basal levels in un-stimulated cells (human PTH-1 receptor): increased levels of cAMP accumulation
Substance: PTH (1–9)-(Gly)7-PTH(17–31) (AVSEIQLMHGGGGGGGSMERVEWLRKKLQDV; modified PTH sequence) [PG7, S-(L)n-B peptide: PTH(1–9), linker (Gly)7, PTH(17–31)]

cAMP accumulation as compared to basal levels in un-stimulated cells (human PTH-1 receptor): increased levels of cAMP accumulation
Substance: PTH(1–9)-(Gly)5-PTH(15–31) (AVSEIQLMHGGGGGLNSMERVEWLRKKLQDV; modified PTH sequence) [PG5, S-(L)n-B peptide: PTH(1–9), linker (Gly)5, PTH(15–31)]

Substance: PTH(1–14) (AVSEIQLMHNLGKH; not fully specified (C-terminus); listed as Homo sapiens) [N-terminal fragment (1–14) of parathyroid hormone]
EC50 (truncated PTH receptor; read-out: EC50, cAMP formation): ~100 µM
EC50 (wildtype PTH receptor; intact receptor): ~100 µM

Substance: PTH(1–34)
potency, cAMP formation (truncated PTH receptor): severly diminished
EC50 (wildtype PTH receptor; wildtype receptor): ~0.003 µM

bioactivity over the background level of bioactivity of the native PTH(1–14) peptide (human PTH-1 receptor; serine at position one replaced by alanine): measurable increase in bioactivity
Substance: [Ala^1] PTH(1–14)

Reference: patent US7057012B1, “PTH functional domain conjugate peptides, derivatives thereof and novel tethered ligand-receptor molecules” (The General Hospital Corporation, priority 1998, dated 2006)
